Data from article PMC9122601, “A widespread family of WYL-domain transcriptional regulators co-localizes with diverse phage defence systems and islands”.
Numbering of substitutions follows the chain as printed. Blank lines part the entries; values can stand above or below the molecule they belong to.

Assays:
[1] = target: His6-BrxR-R17A from Escherichia fergusonii (Escherichia fergusonii ATCC 35469); assay: SEC; analytical gel filtration, Superdex 200 Increase GL 5/150, 20 mM Tris-HCl pH 7.9, 150 mM NaCl, 0.175 ml/min; 50 μl samples with 5 μl of 1000 nM protein; oligomeric state from elution volume against calibration standards
[2] = target: His6-BrxR from Escherichia fergusonii (Escherichia fergusonii ATCC 35469); assay: as above
[3] = target: BrxR from Escherichia fergusonii, untagged (Escherichia fergusonii ATCC 35469); assay: as above
[4] = target: T1, His6-BrxR (BrxR-Efer) (Escherichia fergusonii (plasmid pEFER), UniProt B7L3Y3 14-308); assay: EMSA; only non-specific binding at high protein; EMSA: 10 mM Tris-HCl pH 7.9, 150 mM KCl, 0.5 mM EDTA, 0.2 mM DTT, 0.1% Triton X-100, 13% glycerol (1x of 5x buffer), 1 ug poly(dI-dC) per 10 ul, 2500 fmol probe, 25 C 30 min; 7% native PAGE in 0.5x TBE; settings: protein: recombinant; tags: N-terminal His6; chain copies: 2; label: 5' 6-FAM on reverse strand (primer TRB1068); blunt
T1 sequence: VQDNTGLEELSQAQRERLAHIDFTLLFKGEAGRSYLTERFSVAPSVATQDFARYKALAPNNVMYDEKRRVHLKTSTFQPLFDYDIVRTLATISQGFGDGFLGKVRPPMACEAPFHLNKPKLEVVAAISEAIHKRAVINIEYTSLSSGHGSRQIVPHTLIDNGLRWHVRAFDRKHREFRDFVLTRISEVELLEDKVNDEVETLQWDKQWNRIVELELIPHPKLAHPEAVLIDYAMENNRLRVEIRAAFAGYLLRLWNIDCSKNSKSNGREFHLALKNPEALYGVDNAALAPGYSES

[5] = target: T1, His6-BrxR (BrxR-Efer); assay: EMSA; EMSA: 10 mM Tris-HCl pH 7.9, 150 mM KCl, 0.5 mM EDTA, 0.2 mM DTT, 0.1% Triton X-100, 13% glycerol (1x of 5x buffer), 1 ug poly(dI-dC) per 10 ul, 2500 fmol probe, 25 C 30 min; 7% native PAGE in 0.5x TBE; settings: protein: recombinant; tags: N-terminal His6; chain copies: 2; label: 5' 6-FAM on reverse strand (primer TRB1068); blunt

Molecule: His6-BrxR-R17A from Escherichia fergusonii (natural protein)
stoichiometry N [1]: 2

stoichiometry N [2]: 2
Molecule: His6-BrxR from Escherichia fergusonii (natural protein)

stoichiometry N [3]: 2
Molecule: BrxR from Escherichia fergusonii, untagged (natural protein)

B1: IR1c-IR2c probe (dsDNA)
DNA 1: GACGACTTGTTGATACTATCCCCCCCCCCCAAAAACCCCCCCCCCCTTGATGGCATTCAATCGATGGCTTAAGCTTTTGTCAGTGCGCA
DNA 2: TGCGCACTGACAAAAGCTTAAGCCATCGATTGAATGCCATCAAGGGGGGGGGGGTTTTTGGGGGGGGGGGATAGTATCAACAAGTCGTC
binding result [4]: no binding

B2: WT IR1-IR2 probe (R7, R-BOX1) (dsDNA)
DNA 1: GACGACTTGTTGATACTATGAAACCTACTGAAAAACAGTAGGTTGCTTGATGGCATTCAATCGATGGCTTAAGCTTTTGTCAGTGCGCA
DNA 2: TGCGCACTGACAAAAGCTTAAGCCATCGATTGAATGCCATCAAGCAACCTACTGTTTTTCAGTAGGTTTCATAGTATCAACAAGTCGTC
Kd [5]: 13 ± 2.7 nM

B3: IR1-IR2c probe (dsDNA)
DNA 1: B1 DNA 1 with C20G, C21A, C22A, C23A, C26T, C27A, C29T, C30G
DNA 2: B1 DNA 2 with G60C, G61A, G63T, G64A, G67T, G68T, G69T, G70C
Kd [5]: 85.5 ± 18.7 nM

B4: IR1c-IR2 probe (dsDNA)
DNA 1: B2 DNA 1 with G20C, A21C, A22C, A23C, T26C, A27C, T29C, G30C
DNA 2: B2 DNA 2 with C60G, A61G, T63G, A64G, T67G, T68G, T69G, C70G
Kd [5]: 24 ± 6.5 nM
